In patent US20100215651A1 (GLENMARK PHARMACEUTICALS S A, published 2010):

T1: human CD19 (human, UniProt P15391 20-556)
T1 construct: CD19 as expressed on Raji, NALM-6 and SU-DHL-6 cells; also called CD19 antigen; B-cell surface antigen B4
T1 sequence: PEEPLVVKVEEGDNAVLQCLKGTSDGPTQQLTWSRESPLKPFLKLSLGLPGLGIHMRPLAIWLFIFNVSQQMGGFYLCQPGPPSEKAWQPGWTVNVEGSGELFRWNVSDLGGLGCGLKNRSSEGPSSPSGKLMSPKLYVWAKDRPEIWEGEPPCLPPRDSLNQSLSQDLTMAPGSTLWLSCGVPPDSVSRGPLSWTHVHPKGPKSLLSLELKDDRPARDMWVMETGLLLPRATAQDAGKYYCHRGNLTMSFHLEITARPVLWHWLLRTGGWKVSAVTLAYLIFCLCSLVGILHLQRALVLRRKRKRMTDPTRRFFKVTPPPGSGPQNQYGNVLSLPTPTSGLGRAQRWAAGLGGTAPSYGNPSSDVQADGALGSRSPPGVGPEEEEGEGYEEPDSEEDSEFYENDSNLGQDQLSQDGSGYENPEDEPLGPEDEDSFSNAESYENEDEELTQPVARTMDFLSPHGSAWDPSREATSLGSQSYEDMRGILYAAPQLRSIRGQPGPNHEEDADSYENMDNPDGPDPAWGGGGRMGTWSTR


The binders below were run against T1, human CD19 (assay: flow cytometry, Raji cells, MPF vs chimeric FMC63).
Description: Binding of the CD19 humanized monoclonal antibodies by flow cytometry to Raji tumor cells (human Burkitt lymphoma, DSMZ ACC319), NALM-6 (human B cell precursor leukemia, DSMZ ACC128) and SU-DHL-6 (human B cell lymphoma, DSMZ ACC572) (all cell lines from DSMZ Braunschweig, Deutschland) was assessed. Cells were incubated with serial dilutions of each humanized monoclonal antibody. An irrelevant human IgG1 was used as a negative control. The cells were washed and detected by a phycoerythrin-labeled (PE) anti-human secondary antibody (eBioscience, CA, USA) and analyzed by flow cytometry. […] From MFI versus antibody concentration curves, Mid-Point Fluorescence (MPF) value for each anti-CD19 humanized antibody was calculated using the software GraphPad Prism 5 (CA, USA).

relative MPF (% of chimeric FMC63) [%]	binding result	Binder
111	–	VH16 R94K/VL43 V3Q/T7S/Y32F/P44I/N92A (antibody, human IgG1, kappa, V domains shown, human IgG1/kappa) VH: QVQLVQSGGGVVQPGRSLRLSCAASGVSLPDYGVSWVRQAPGKGLEWVAVIWGSETTYYNSALKSRFTISRDNSKNTLYLQMNSLRAEDTAVYYCAKHYYYGGSYAMDYWGQGTLVTVSS VL: DIQMTQSPSSLSASVGDRVTITCRASQDISKFLNWYQQKPGKAIKLLIYHTSRLHSGVPSRFSGSGSGTDFTLTISSLQPEDFATYYCQQGATLPYTFGPGTKVDIKR
62.5	–	VH16 R94K Y32F VL43 (antibody, human IgG1, name in Kabat numbering, V domains shown, substitutions in Kabat numbering) VH: QVQLVQSGGGVVQPGRSLRLSCAASGVSLPDFGVSWVRQAPGKGLEWVAVIWGSETTYYNSALKSRFTISRDNSKNTLYLQMNSLRAEDTAVYYCAKHYYYGGSYAMDYWGQGTLVTVSS VL: DIVMTQTPSSLSASVGDRVTITCRASQDISKYLNWYQQKPGKAPKLLIYHTSRLHSGVPSRFSGSGSGTDFTLTISSLQPEDFATYYCQQGNTLPYTFGPGTKVDIKR
5.36	–	VH16 R94K Y96F VL43 (antibody, human IgG1, name in Kabat numbering, V domains shown, substitutions in Kabat numbering) VH: QVQLVQSGGGVVQPGRSLRLSCAASGVSLPDYGVSWVRQAPGKGLEWVAVIWGSETTYYNSALKSRFTISRDNSKNTLYLQMNSLRAEDTAVYYCAKHFYYGGSYAMDYWGQGTLVTVSS VL: DIVMTQTPSSLSASVGDRVTITCRASQDISKYLNWYQQKPGKAPKLLIYHTSRLHSGVPSRFSGSGSGTDFTLTISSLQPEDFATYYCQQGNTLPYTFGPGTKVDIKR
72.8	–	VH16 R94K Y97F VL43 (antibody, human IgG1, name in Kabat numbering, V domains shown, substitutions in Kabat numbering) VH: QVQLVQSGGGVVQPGRSLRLSCAASGVSLPDYGVSWVRQAPGKGLEWVAVIWGSETTYYNSALKSRFTISRDNSKNTLYLQMNSLRAEDTAVYYCAKHYFYGGSYAMDYWGQGTLVTVSS VL: DIVMTQTPSSLSASVGDRVTITCRASQDISKYLNWYQQKPGKAPKLLIYHTSRLHSGVPSRFSGSGSGTDFTLTISSLQPEDFATYYCQQGNTLPYTFGPGTKVDIKR
34.1	–	VH16 R94K Y98F VL43 (antibody, human IgG1, name in Kabat numbering, V domains shown, substitutions in Kabat numbering) VH: QVQLVQSGGGVVQPGRSLRLSCAASGVSLPDYGVSWVRQAPGKGLEWVAVIWGSETTYYNSALKSRFTISRDNSKNTLYLQMNSLRAEDTAVYYCAKHYYFGGSYAMDYWGQGTLVTVSS VL: DIVMTQTPSSLSASVGDRVTITCRASQDISKYLNWYQQKPGKAPKLLIYHTSRLHSGVPSRFSGSGSGTDFTLTISSLQPEDFATYYCQQGNTLPYTFGPGTKVDIKR
–	binds	VH16 R94K/Y97F/VL43 V3Q/T7S/N92A (antibody, human IgG1, name in Kabat numbering, V domains shown, substitutions in Kabat numbering) VH: QVQLVQSGGGVVQPGRSLRLSCAASGVSLPDYGVSWVRQAPGKGLEWVAVIWGSETTYYNSALKSRFTISRDNSKNTLYLQMNSLRAEDTAVYYCAKHYFYGGSYAMDYWGQGTLVTVSS VL: DIQMTQSPSSLSASVGDRVTITCRASQDISKYLNWYQQKPGKAPKLLIYHTSRLHSGVPSRFSGSGSGTDFTLTISSLQPEDFATYYCQQGATLPYTFGPGTKVDIKR
58.8	–	VH16 Y32F/R94K/VL43 V3Q/T7S/N92A (antibody, human IgG1, name in Kabat numbering, V domains shown, substitutions in Kabat numbering) VH: QVQLVQSGGGVVQPGRSLRLSCAASGVSLPDFGVSWVRQAPGKGLEWVAVIWGSETTYYNSALKSRFTISRDNSKNTLYLQMNSLRAEDTAVYYCAKHYYYGGSYAMDYWGQGTLVTVSS VL: DIQMTQSPSSLSASVGDRVTITCRASQDISKYLNWYQQKPGKAPKLLIYHTSRLHSGVPSRFSGSGSGTDFTLTISSLQPEDFATYYCQQGATLPYTFGPGTKVDIKR
–	binds	VH16 Y32F/R94K/VL43 V3Q/T7S/Y32F/N92A (antibody, human IgG1, name in Kabat numbering, V domains shown, substitutions in Kabat numbering) VH: QVQLVQSGGGVVQPGRSLRLSCAASGVSLPDFGVSWVRQAPGKGLEWVAVIWGSETTYYNSALKSRFTISRDNSKNTLYLQMNSLRAEDTAVYYCAKHYYYGGSYAMDYWGQGTLVTVSS VL: DIQMTQSPSSLSASVGDRVTITCRASQDISKFLNWYQQKPGKAPKLLIYHTSRLHSGVPSRFSGSGSGTDFTLTISSLQPEDFATYYCQQGATLPYTFGPGTKVDIKR
6.54	–	VH16-F67L/VL43-F71Y (antibody, human IgG1, name in Kabat numbering, V domains shown, substitutions in Kabat numbering) VH: QVQLVQSGGGVVQPGRSLRLSCAASGVSLPDYGVSWVRQAPGKGLEWVAVIWGSETTYYNSALKSRLTISRDNSKNTLYLQMNSLRAEDTAVYYCARHYYYGGSYAMDYWGQGTLVTVSS VL: DIVMTQTPSSLSASVGDRVTITCRASQDISKYLNWYQQKPGKAPKLLIYHTSRLHSGVPSRFSGSGSGTDYTLTISSLQPEDFATYYCQQGNTLPYTFGPGTKVDIKR
4.35	–	VH16-F67L/VL43-Y87F (antibody, human IgG1, name in Kabat numbering, V domains shown, substitutions in Kabat numbering) VH: QVQLVQSGGGVVQPGRSLRLSCAASGVSLPDYGVSWVRQAPGKGLEWVAVIWGSETTYYNSALKSRLTISRDNSKNTLYLQMNSLRAEDTAVYYCARHYYYGGSYAMDYWGQGTLVTVSS VL: DIVMTQTPSSLSASVGDRVTITCRASQDISKYLNWYQQKPGKAPKLLIYHTSRLHSGVPSRFSGSGSGTDFTLTISSLQPEDFATYFCQQGNTLPYTFGPGTKVDIKR
8.33	–	VH16-G42R/VL43-P44V (antibody, human IgG1, name in Kabat numbering, V domains shown, substitutions in Kabat numbering) VH: QVQLVQSGGGVVQPGRSLRLSCAASGVSLPDYGVSWVRQAPRKGLEWVAVIWGSETTYYNSALKSRFTISRDNSKNTLYLQMNSLRAEDTAVYYCARHYYYGGSYAMDYWGQGTLVTVSS VL: DIVMTQTPSSLSASVGDRVTITCRASQDISKYLNWYQQKPGKAVKLLIYHTSRLHSGVPSRFSGSGSGTDFTLTISSLQPEDFATYYCQQGNTLPYTFGPGTKVDIKR
10.8	–	VH16-L78V/VL43 (antibody, human IgG1, name in Kabat numbering, V domains shown, substitutions in Kabat numbering) VH: QVQLVQSGGGVVQPGRSLRLSCAASGVSLPDYGVSWVRQAPGKGLEWVAVIWGSETTYYNSALKSRFTISRDNSKNTVYLQMNSLRAEDTAVYYCARHYYYGGSYAMDYWGQGTLVTVSS VL: DIVMTQTPSSLSASVGDRVTITCRASQDISKYLNWYQQKPGKAPKLLIYHTSRLHSGVPSRFSGSGSGTDFTLTISSLQPEDFATYYCQQGNTLPYTFGPGTKVDIKR
12.3	–	VH16-L78V/VL43-F71Y (antibody, human IgG1, name in Kabat numbering, V domains shown, substitutions in Kabat numbering) VH: QVQLVQSGGGVVQPGRSLRLSCAASGVSLPDYGVSWVRQAPGKGLEWVAVIWGSETTYYNSALKSRFTISRDNSKNTVYLQMNSLRAEDTAVYYCARHYYYGGSYAMDYWGQGTLVTVSS VL: DIVMTQTPSSLSASVGDRVTITCRASQDISKYLNWYQQKPGKAPKLLIYHTSRLHSGVPSRFSGSGSGTDYTLTISSLQPEDFATYYCQQGNTLPYTFGPGTKVDIKR
17.9	–	VH16-L78V/VL43-Y87F (antibody, human IgG1, name in Kabat numbering, V domains shown, substitutions in Kabat numbering) VH: QVQLVQSGGGVVQPGRSLRLSCAASGVSLPDYGVSWVRQAPGKGLEWVAVIWGSETTYYNSALKSRFTISRDNSKNTVYLQMNSLRAEDTAVYYCARHYYYGGSYAMDYWGQGTLVTVSS VL: DIVMTQTPSSLSASVGDRVTITCRASQDISKYLNWYQQKPGKAPKLLIYHTSRLHSGVPSRFSGSGSGTDFTLTISSLQPEDFATYFCQQGNTLPYTFGPGTKVDIKR
4.43	–	VH16-R71K/VL43 (antibody, human IgG1, name in Kabat numbering, V domains shown, substitutions in Kabat numbering) VH: QVQLVQSGGGVVQPGRSLRLSCAASGVSLPDYGVSWVRQAPGKGLEWVAVIWGSETTYYNSALKSRFTISKDNSKNTLYLQMNSLRAEDTAVYYCARHYYYGGSYAMDYWGQGTLVTVSS VL: DIVMTQTPSSLSASVGDRVTITCRASQDISKYLNWYQQKPGKAPKLLIYHTSRLHSGVPSRFSGSGSGTDFTLTISSLQPEDFATYYCQQGNTLPYTFGPGTKVDIKR
6.93	–	VH16-R71K/VL43-P44V (antibody, human IgG1, name in Kabat numbering, V domains shown, substitutions in Kabat numbering) VH: QVQLVQSGGGVVQPGRSLRLSCAASGVSLPDYGVSWVRQAPGKGLEWVAVIWGSETTYYNSALKSRFTISKDNSKNTLYLQMNSLRAEDTAVYYCARHYYYGGSYAMDYWGQGTLVTVSS VL: DIVMTQTPSSLSASVGDRVTITCRASQDISKYLNWYQQKPGKAVKLLIYHTSRLHSGVPSRFSGSGSGTDFTLTISSLQPEDFATYYCQQGNTLPYTFGPGTKVDIKR
4.19	–	VH16-R71K/VL43-Y87F (antibody, human IgG1, name in Kabat numbering, V domains shown, substitutions in Kabat numbering) VH: QVQLVQSGGGVVQPGRSLRLSCAASGVSLPDYGVSWVRQAPGKGLEWVAVIWGSETTYYNSALKSRFTISKDNSKNTLYLQMNSLRAEDTAVYYCARHYYYGGSYAMDYWGQGTLVTVSS VL: DIVMTQTPSSLSASVGDRVTITCRASQDISKYLNWYQQKPGKAPKLLIYHTSRLHSGVPSRFSGSGSGTDFTLTISSLQPEDFATYFCQQGNTLPYTFGPGTKVDIKR
11.3	–	VH16/VL43-F71Y (antibody, human IgG1, V domains shown, substitutions in Kabat numbering) VH: QVQLVQSGGGVVQPGRSLRLSCAASGVSLPDYGVSWVRQAPGKGLEWVAVIWGSETTYYNSALKSRFTISRDNSKNTLYLQMNSLRAEDTAVYYCARHYYYGGSYAMDYWGQGTLVTVSS VL: DIVMTQTPSSLSASVGDRVTITCRASQDISKYLNWYQQKPGKAPKLLIYHTSRLHSGVPSRFSGSGSGTDYTLTISSLQPEDFATYYCQQGNTLPYTFGPGTKVDIKR
